Patent publication US20050208482A1, “Tat-based immunomodulatory compositions and methods for their discovery and use” (priority 2004, published 2005)

B1: Tat: conventional immunosuppressive HIV-1 trans-activator of transcription protein, recombinant (SEQ ID NO. 2) (protein)
chain: MEPVDPRLEPWKHPGSQPKTACTTCYCKKCCFHCQVCFTKKALGISYGRKKRRQRRRAPEDSQTHQVSPPKQPAPQFRGDPTGPKESKKKVERETETHPVD
modifications: Human immunodeficiency virus type 1

What was measured:
[1] = tested on: monocytes committed to the dendritic cell (DC) lineage; test: Tat induction of CD86 on monocytes committed to the DC lineage (FACScan); type: cell-based, Human; conditions: committed DCs cultured overnight; Tat 50 nM, LPS 100 ng/mL; Control MFI 9
Procedure: An additional embodiment of the present invention is that Tat induces monocytes committed to the dendritic cell (DC) lineage to enlarge into activated, CD86+DC APCs (FIG. 1). Human monocytes enriched from PBMCs by Percoll density gradient separation and adherance to anti-CD14 coated magnetic beads (Dynabeads M-450, Dynal Biotech) were committed to differentiate into DCs through five days of culture in GM-CSF (100 ng/mL) and IL-4 (100 ng/mL). Committed DCs were cultured overnight either in medium alone (Control), LPS (100 ng/mL), or Tat (50 nM), after which they were stained with an anti-CD86 antibody (BD Pharmingen) and analyzed by FACScan for CD86 induction (left panel) or generalized activation (right panel, enlargement into box R2, shown for Tat-stimulated cells). The MFIs for CD86 expression are 9 (Control), 30 (LPS), and 187 (Tat), CD86 being a specific determinant of DC activation.

[2] = tested on: Human monocytes; test: Tat activation of monocytes/macrophages, Fas ligand (FasL) induction by flow cytometry; type: cell-based
Procedure: Tat activation of monocytes is dose-dependent and saturatable (FIG. 3). Human monocytes were cultured in increasing concentrations of recombinant Tat for six days at which time they were assayed for Fas ligand (FasL) induction as a measure of activation by using flow cytometry (FACScan, Becton Dickinson) to quantitate the intensity of staining (mean fluorescence index (MFI)) with an anti-Fas ligand monoclonal antibody (Nok 1, BD Pharmingen).

[3] = tested on: Human PBMCs; type: cell-based
[4] = tested on: antibody response to p24; test: Suppression of humoral immune response to HIV-1 p24 in immunized mice (ELISA); type: in vivo; conditions: 5 μg p24 + 5 μg Tat in complete Freund's adjuvant s.c.
Procedure: Tat suppresses the antigen-specific humoral immune response to HIV-1 p24 (FIG. 4). At week 0, mice (4 in each group) were immunized with 5 μg recombinant p24 protein (Chiron, Emeryville, Calif.) and either 5 μg recombinant Tat protein (PT) or 5 μg recombinant ox-Tat* protein (Ag) mixed in 100 μL complete Freund's adjuvant and administered subcutaneously in the flank. Following immunization, sera were collected every other week for 10 weeks and assayed for a specific antibody response to p24 by commercially available ELISA (Abbott Laboratories, Abbott Park, Ill.). […] This response was maintained for at least 6 weeks. The antibody titers at 6 weeks are approximately ten times greater than at week 2 due to maturation of the immune response.

[5] = tested on: CD4+T cells; test: Direct apoptosis of CD4+ T cells by Tat; type: cell-based
[6] = tested on: T cells; test: T cell activation by Tat; type: cell-based; conditions: 50 nM Tat

Molecule	MFI for CD86 expression [1]	concentration of Tat that triggers the effect on the macrophages ([2]; FasL-inducing macrophage effect) [pM]	plateau stimulatory concentration for APCs ([2]; six days culture, FasL MFI, higher concentrations did not increase MFI) [nM]	proliferation (stimulation index) relative to antigen treatment alone [3] [%]	reversal of Tat suppression, proliferation as % of control ([3]; with further addition of anti-IL-10 and anti-IL-6 antibodies to the cultures)	duration for which suppression of p24 antibody response was maintained [4]	p24 antibody titer at 2 weeks ([4]; compared with ox-Tat* control)	concentration required to initiate direct apoptosis of CD4+T cells [5]	T cell activation [6]
lipopolysaccharide [LPS, reference compound]	30	–	–	–	–	–	–	–	–
B1	187	500	50	141	> 95 % of control	at least 6 weeks	completely suppressed	approximately 500 nM	could not be activated
